In publication doi:10.1101/2021.12.06.471393:

Target: CRISPR-Lon protease (Sulfurihydrogenibium sp. YO3AOP1)
Assay: SEC-MALS

Row | stoichiometry N (CRISPR-T variant per CRISPR-Lon) | stoichiometry N (CRISPR-T per CRISPR-Lon) | Substance
1 | 1 |  | CRISPR-T A194E (natural protein)
2 | 1 |  | CRISPR-T A171E (natural protein)
3 | 1 |  | CRISPR-T A181E (natural protein)
4 |  | 1 | CRISPR-T protein (natural protein)
